In this experiment the target is Cluster of Differentiation 147 (CD147) (human). Briefly: single-molecule force spectroscopy (AFM).
Cluster of Differentiation 147 (CD147) (human), sequence (P35613 other isoform, or with tags, fused parts or gaps): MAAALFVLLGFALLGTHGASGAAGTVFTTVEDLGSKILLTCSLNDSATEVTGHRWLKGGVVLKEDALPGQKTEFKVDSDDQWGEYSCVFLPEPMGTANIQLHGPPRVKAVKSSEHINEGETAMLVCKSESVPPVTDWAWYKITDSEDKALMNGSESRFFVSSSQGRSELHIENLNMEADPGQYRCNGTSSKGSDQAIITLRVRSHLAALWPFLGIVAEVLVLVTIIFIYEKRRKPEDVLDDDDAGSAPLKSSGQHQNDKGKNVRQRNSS

The substance “Full length Spike Protein (SARS-CoV-2) (from UniProt P0DTC2) (natural protein)” registered a mean adhesion force of 41.9 pN, a mean adhesion force (tip contact time 0 s) of 38.8 pN and a mean adhesion force at 37 °C of 46.2 pN.

The values above are taken from paper PMC12368639.
